According to IntAct's records for PubMed 31515488:

B1: Mothers against decapentaplegic homolog 3 (Homo sapiens), P84022 (parent)
chain: MSSILPFTPPIVKRLLGWKKGEQNGQEEKWCEKAVKSLVKKLKKTGQLDELEKAITTQNVNTKCITIPRSLDGRLQVSHRKGLPHVIYCRLWRWPDLHSHHELRAMELCEFAFNMKKDEVCVNPYHYQRVETPVLPPVLVPRHTEIPAEFPPLDDYSHSIPENTNFPAGIEPQSNIPETPPPGYLSEDGETSDHQMNHSMDAGSPNLSPNPMSPAHNNLDLQPVTYCEPAFWCSISYYELNQRVGETFHASQPSMTVDGFTDPSNSERFCLGLLSNVNRNAAVELTRRHIGRGVRLYYIGGEVFAECLSDSAIFVQSPNCNQRYGWHPATVCKIPPGCNLKIFNNQEFAALLAQSVNQGFEAVYQLTRMCTIRMSFVKGWGAEYRRQTVTSTPCWIELHLNGPLQWLDKVLTQMGSPSIRCSSVS
partner: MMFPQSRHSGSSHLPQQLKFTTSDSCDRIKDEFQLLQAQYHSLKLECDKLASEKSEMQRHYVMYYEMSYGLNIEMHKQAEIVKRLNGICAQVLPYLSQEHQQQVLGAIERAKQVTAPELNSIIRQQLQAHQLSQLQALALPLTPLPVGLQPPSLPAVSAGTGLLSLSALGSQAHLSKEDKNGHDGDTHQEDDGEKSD
B2: mRNA-decapping enzyme 1A (Homo sapiens), Q9NPI6 (parent)
chain: MEALSRAGQEMSLAALKQHDPYITSIADLTGQVALYTFCPKANQWEKTDIEGTLFVYRRSASPYHGFTIVNRLNMHNLVEPVNKDLEFQLHEPFLLYRNASLSIYSIWFYDKNDCHRIAKLMADVVEEETRRSQQAARDKQSPSQANGCSDHRPIDILEMLSRAKDEYERNQMGDSNISSPGLQPSTQLSNLGSTETLEEMPSGSQDKSAPSGHKHLTVEELFGTSLPKEQPAVVGLDSEEMERLPGDASQKEPNSFLPFPFEQLGGAPQSETLGVPSAAHHSVQPEITTPVLITPASITQSNEKHAPTYTIPLSPVLSPTLPAEAPTAQVPPSLPRNSTMMQAVKTTPRQRSPLLNQPVPELSHASLIANQSPFRAPLNVTNTAGTSLPSVDLLQKLRLTPQHDQIQTQPLGKGAMVASFSPAAGQLATPESFIEPPSKTAAARVAASASLSNMVLAPLQSMQQNQDPEVFVQPKVLSSAIPVAGAPLVTATTTAVSSVLLAPSVFQQTVTRSSDLERKASSPSPLTIGTPESQRKPSIILSKSQLQDTLIHLIKNDSSFLSTLHEVYLQVLTKNKDNHNL
partner: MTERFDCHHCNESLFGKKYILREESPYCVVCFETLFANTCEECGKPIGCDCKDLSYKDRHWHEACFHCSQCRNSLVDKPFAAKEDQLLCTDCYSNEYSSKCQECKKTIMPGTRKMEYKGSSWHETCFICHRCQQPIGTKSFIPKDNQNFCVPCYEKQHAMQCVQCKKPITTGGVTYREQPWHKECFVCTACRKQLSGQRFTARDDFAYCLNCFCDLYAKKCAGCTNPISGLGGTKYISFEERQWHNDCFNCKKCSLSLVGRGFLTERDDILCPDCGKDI
B3: Kinetochore protein NDC80 homolog (Homo sapiens), O14777 (parent)
chain: MKRSSVSSGGAGRLSMQELRSQDVNKQGLYTPQTKEKPTFGKLSINKPTSERKVSLFGKRTSGHGSRNSQLGIFSSSEKIKDPRPLNDKAFIQQCIRQLCEFLTENGYAHNVSMKSLQAPSVKDFLKIFTFLYGFLCPSYELPDTKFEEEVPRIFKDLGYPFALSKSSMYTVGAPHTWPHIVAALVWLIDCIKIHTAMKESSPLFDDGQPWGEETEDGIMHNKLFLDYTIKCYESFMSGADSFDEMNAELQSKLKDLFNVDAFKLESLEAKNRALNEQIARLEQEREKEPNRLESLRKLKASLQGDVQKYQAYMSNLESHSAILDQKLNGLNEEIARVELECETIKQENTRLQNIIDNQKYSVADIERINHERNELQQTINKLTKDLEAEQQKLWNEELKYARGKEAIETQLAEYHKLARKLKLIPKGAENSKGYDFEIKFNPEAGANCLVKYRAQVYVPLKELLNETEEEINKALNKKMGLEDTLEQLNAMITESKRSVRTLKEEVQKLDDLYQQKIKEAEEEDEKCASELESLEKHKHLLESTVNQGLSEAMNELDAVQREYQLVVQTTTEERRKVGNNLQRLLEMVATHVGSVEKHLEEQIAKVDREYEECMSEDLSENIKEIRDKYEKKATLIKSSEE

Variants of: B1
Conditions: with tle5_human TLE5, Q08117

| effect of a mutation on the interaction | Variant |
| --- | --- |
| with no effect | I170V |

Variants of: B2
Conditions: with fhl2_human FHL2, Q14192

| effect of a mutation on the interaction | Variant |
| --- | --- |
| with no effect | Q474H |
| with no effect | P332T |
| with no effect | A297G |

Variants of: B3
Conditions: with amol2_human AMOTL2, Q9Y2J4
Sequence of amol2_human AMOTL2, Q9Y2J4 (Q9Y2J4 whole entry): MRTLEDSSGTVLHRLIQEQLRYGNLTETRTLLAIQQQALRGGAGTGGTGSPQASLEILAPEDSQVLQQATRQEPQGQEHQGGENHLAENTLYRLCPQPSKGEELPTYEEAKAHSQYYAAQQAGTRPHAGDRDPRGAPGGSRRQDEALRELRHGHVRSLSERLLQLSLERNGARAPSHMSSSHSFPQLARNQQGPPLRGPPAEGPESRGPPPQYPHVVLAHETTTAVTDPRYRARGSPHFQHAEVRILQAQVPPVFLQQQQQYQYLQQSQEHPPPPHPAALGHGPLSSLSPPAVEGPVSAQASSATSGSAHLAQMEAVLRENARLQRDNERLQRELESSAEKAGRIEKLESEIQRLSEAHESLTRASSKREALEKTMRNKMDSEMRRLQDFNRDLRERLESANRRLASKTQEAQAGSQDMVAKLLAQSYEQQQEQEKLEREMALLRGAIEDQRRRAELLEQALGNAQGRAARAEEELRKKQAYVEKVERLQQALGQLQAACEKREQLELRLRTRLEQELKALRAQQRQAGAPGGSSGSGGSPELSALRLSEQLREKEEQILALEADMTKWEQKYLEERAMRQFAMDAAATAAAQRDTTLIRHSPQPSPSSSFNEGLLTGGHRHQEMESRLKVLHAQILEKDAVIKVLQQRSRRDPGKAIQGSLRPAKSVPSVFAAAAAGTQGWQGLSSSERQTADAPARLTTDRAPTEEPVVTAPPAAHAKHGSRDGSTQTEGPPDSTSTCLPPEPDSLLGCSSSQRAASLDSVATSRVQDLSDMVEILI

| effect of a mutation on the interaction | Variant |
| --- | --- |
| with no effect | E348D |
| with no effect | S55P |

Variants of: B3
Conditions: with txlna_human TXLNA

| effect of a mutation on the interaction | Variant |
| --- | --- |
| with no effect | E348D |
| with no effect | S55P |

Variants of: B3
Conditions: with atf4_human ATF4, P18848
Sequence of atf4_human ATF4, P18848 (P18848 whole entry): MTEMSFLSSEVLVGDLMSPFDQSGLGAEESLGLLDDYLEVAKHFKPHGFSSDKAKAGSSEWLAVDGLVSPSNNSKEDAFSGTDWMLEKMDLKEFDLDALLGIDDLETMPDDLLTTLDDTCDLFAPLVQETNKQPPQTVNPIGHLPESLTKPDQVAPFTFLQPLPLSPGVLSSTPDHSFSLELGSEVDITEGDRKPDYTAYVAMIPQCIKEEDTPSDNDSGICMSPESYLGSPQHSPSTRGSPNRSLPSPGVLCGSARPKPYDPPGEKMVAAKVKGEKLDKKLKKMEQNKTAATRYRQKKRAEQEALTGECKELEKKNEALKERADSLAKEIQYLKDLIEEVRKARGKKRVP

| effect of a mutation on the interaction | Variant |
| --- | --- |
| with no effect | E348D |
| with no effect | S55P |

Variants of: B3
Conditions: with tnip1_human TNIP1, Q15025
Sequence of tnip1_human TNIP1, Q15025 (Q15025 whole entry): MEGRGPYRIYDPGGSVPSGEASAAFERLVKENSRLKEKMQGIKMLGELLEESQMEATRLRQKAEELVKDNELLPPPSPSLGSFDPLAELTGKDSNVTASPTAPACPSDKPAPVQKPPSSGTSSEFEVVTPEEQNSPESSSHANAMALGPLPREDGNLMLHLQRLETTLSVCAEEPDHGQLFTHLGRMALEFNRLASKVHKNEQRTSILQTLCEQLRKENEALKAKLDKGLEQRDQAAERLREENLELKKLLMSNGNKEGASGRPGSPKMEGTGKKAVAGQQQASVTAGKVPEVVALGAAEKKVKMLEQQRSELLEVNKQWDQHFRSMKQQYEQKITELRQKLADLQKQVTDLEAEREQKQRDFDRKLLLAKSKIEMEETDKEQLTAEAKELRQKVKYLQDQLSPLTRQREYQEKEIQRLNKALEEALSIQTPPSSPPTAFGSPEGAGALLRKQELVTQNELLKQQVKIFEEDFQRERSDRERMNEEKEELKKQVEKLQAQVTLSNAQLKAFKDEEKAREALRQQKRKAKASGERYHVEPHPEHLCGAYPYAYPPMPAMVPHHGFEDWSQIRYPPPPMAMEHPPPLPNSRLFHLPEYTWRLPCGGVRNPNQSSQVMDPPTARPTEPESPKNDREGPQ

| effect of a mutation on the interaction | Variant |
| --- | --- |
| with no effect | E348D |
| with no effect | S55P |
